# Measured values published in patent US20230212293A1 (published 2023).
# T1: Recombinant mouse PD-1 extracellular domain (with an immunoglobulin Fc region or a His tag) (mouse, UniProt Q02242 25-169)
# T1 construct: extracellular domain; Coated on ELISA plates; not shown: either an immunoglobulin Fc region or a His tag
# T1 sequence (looked up): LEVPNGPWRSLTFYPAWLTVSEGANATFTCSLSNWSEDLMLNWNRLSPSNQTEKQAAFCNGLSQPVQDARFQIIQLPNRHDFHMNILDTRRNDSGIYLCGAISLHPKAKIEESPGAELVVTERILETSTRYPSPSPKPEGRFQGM
# T2: Mouse PD-1 overexpressed on HEK293 cells (mouse, UniProt Q02242 25-288)
# T2 construct: whole, on cells
# T2 sequence (looked up): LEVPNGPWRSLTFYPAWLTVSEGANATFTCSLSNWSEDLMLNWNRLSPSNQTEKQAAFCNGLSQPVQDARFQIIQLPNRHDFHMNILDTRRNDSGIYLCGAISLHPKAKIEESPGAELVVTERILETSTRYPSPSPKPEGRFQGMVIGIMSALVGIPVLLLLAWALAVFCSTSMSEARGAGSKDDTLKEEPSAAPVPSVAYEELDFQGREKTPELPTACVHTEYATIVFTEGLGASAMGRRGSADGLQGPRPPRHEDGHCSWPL
# Columns and labels:
# [1] = molecular target: T3, PD-1 on PD-1 reporter Jurkat cells (PATHHUNTER Checkpoint Signaling Assay) (UniProt Q15116 25-288); assay: cell-based or functional assay
# [2] = molecular target: T3, PD-1 on PD-1 reporter Jurkat cells …; assay: cell-based or functional assay; remark: listed apart in the source
# [3] = molecular target: T1, Recombinant mouse PD-1 extracellular …; assay: ELISA, plate-coated recombinant PD-1 extracellular domain
# Protocol: (§1) An enzyme-linked immunosorbent assay (ELISA) was performed to assess the binding of anti-PD-1 antibodies to human, cynomolgus monkey, or mouse PD-1. Recombinant proteins containing the extracellular domain of PD-1 together with either an immunoglobulin Fc region or a His tag were used to coat wells of standard 96 well ELISA plates by overnight incubation at 4° C. Unbound recombinant protein was removed, Pierce SUPERBLOCK™ T20 was added, and plates were incubated for 10 minutes at room temperature with shaking. Plates were washed with phosphate buffered saline-TWEEN-20 (PBST), and anti-PD-1 antibodies were added in phosphate buffered saline (PBS) with 1% bovine serum albumin (BSA) and incubated for one hour at room temperature with shaking. Plates were then washed in PBST and incubated with horse radish peroxidase (HRP)-conjugated secondary antibodies in F(ab′)2 directed to either human IgG or human IgM. After one hour, plates were washed again with PBST, signal was developed with SUPERSIGNAL™ ELISA Pico substrate, and an ENVISION® luminometer (PerkinElmer) was used to record signal. Data were analyzed with […] PRISM®.
# [4] = molecular target: T4, Recombinant human PD-1 extracellular domain (with an immunoglobulin Fc region or a His tag) (human, UniProt Q15116 25-170); assay: ELISA, plate-coated recombinant PD-1 extracellular domain, HRP anti-human IgG detection
# T4 construct: extracellular domain; Coated on ELISA plates; not shown: either an immunoglobulin Fc region or a His tag
# Protocol: as §1
# [5] = molecular target: T2, Mouse PD-1 overexpressed on HEK293 cells; assay: flow cytometry on HEK293 cells overexpressing mouse PD-1
# Protocol: (§2) HEK293 cells were modified to overexpress human or mouse PD-1. Cells were expanded in puromycin-containing media to maintain selection, and aliquoted to 96 well V-bottom plates for antibody staining and flow cytometric analysis. Anti-PD-1 antibodies were added to cells in BD stain buffer with fetal bovine serum (BD Biosciences, cat. #554656) and incubated on ice for 20 minutes. Cells were then washed, and R-phycoerythrin (PE)-labeled anti-human IgG or anti-human IgM secondary antibodies were then added and incubated for an additional 20 minutes. Data were collected on a Beckman Coulter CYTOFLEX® cytometer and analyzed in FLOWJO™.
# [6] = molecular target: T5, Human PD-1 overexpressed on HEK293 cells (human, UniProt Q15116 25-288); assay: flow cytometry on HEK293 cells overexpressing human PD-1, PE anti-human IgG detection
# T5 construct: whole, on cells
# Protocol: as §2
# [7] = molecular target: T3, PD-1 on PD-1 reporter Jurkat cells …; assay: cell-based or functional assay; remark: listed apart in the source
# [8] = molecular target: T3, PD-1 on PD-1 reporter Jurkat cells …; assay: cell-based or functional assay; remark: listed apart in the source
# [9] = molecular target: T4, Recombinant human PD-1 extracellular …; assay: ELISA, plate-coated recombinant PD-1 extracellular domain, HRP anti-human IgM detection
# Protocol: as §1
# T3 sequence (Q15116 25-288): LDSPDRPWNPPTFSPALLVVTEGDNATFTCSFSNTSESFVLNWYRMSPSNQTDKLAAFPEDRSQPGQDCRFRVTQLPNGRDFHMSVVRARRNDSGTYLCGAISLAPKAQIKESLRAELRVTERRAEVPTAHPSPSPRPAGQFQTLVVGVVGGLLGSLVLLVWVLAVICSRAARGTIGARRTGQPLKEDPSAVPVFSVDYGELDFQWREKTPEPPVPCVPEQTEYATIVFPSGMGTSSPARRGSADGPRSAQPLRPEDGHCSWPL
# T4 sequence (Q15116 25-170): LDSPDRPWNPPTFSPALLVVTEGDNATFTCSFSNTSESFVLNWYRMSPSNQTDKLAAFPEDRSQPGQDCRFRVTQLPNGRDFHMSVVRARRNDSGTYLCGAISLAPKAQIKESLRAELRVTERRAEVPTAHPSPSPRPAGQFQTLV
# T5 sequence (Q15116 25-288): as the sequence (Q15116 25-288) above
binder,measurement,setting,value
Anti-PD-1 pentameric IgM #5 (antibody) VH: QVQLVESGGGVVQPGRSLRLDCKASGITFSNSGMHWVRQAPGKGLEWVAVIWYDGSKRYYADSVKGRFTISRDNSKNTLFLQMNSLRAEDTAVYYCATNDDYWGQGTLVTVSS VL: EIVLTQSPATLSLSPGERATLSCRASQSVSSYLAWYQQKPGQAPRLLIYDASNRATGIPARFSGSGSGTDFTLTISSLEPEDFAVYYCQQSSNWPRTFGQGTKVEIK not shown,"PD-1 Signaling EC50 (method of Example 8), IgM",[1],0.03 nM
"Anti-PD-1 IgG #3 (antibody, V domains shown) VH: QVQLVQSGAEVKKPGASVKVSCKVSGYSLSKYDMSWVRQAPGKGLEWMGIIYTSGYTDYAQKFQGRVTMTEDTSTDTAYMELSSLRSEDTAVYYCATGNPYYTNGFNSWGQGTLVTVSS VL: DIQMTQSPSSLSASVGDRVTITCQASQSPNNLLAWYQQKPGKAPKLLIYGASDLPSGVPSRFSGSGSGTDFTLTISSLQPEDFATYYCQNNYYVGPVSYAFGGGTKVEIK","PD-1 Signaling EC50 (second incubation at 4 C), IgG",[2],0.19 nM
same,"PD-1 Signaling EC50 (second incubation at 4 C), IgG/xlink (crosslinked IgG)",[2],0.19 nM
same,"PD-1 Signaling EC50 (method of Example 8), IgG",[1],0.26 nM
same,"PD-1 Signaling EC50 (method of Example 8), IgG/xlink (crosslinked IgG)",[1],0.79 nM
"Anti-PD-1 Hexameric IgM (IgHM) #3 (antibody, V domains shown) VH: QVQLVQSGAEVKKPGASVKVSCKVSGYSLSKYDMSWVRQAPGKGLEWMGIIYTSGYTDYAQKFQGRVTMTEDTSTDTAYMELSSLRSEDTAVYYCATGNPYYTNGFNSWGQGTLVTVSS VL: DIQMTQSPSSLSASVGDRVTITCQASQSPNNLLAWYQQKPGKAPKLLIYGASDLPSGVPSRFSGSGSGTDFTLTISSLQPEDFATYYCQNNYYVGPVSYAFGGGTKVEIK","PD-1 Signaling EC50 (method of Example 8), IgHM",[1],0.2 nM
Anti-PD-1 IgM #3 (antibody) VH: QVQLVQSGAEVKKPGASVKVSCKVSGYSLSKYDMSWVRQAPGKGLEWMGIIYTSGYTDYAQKFQGRVTMTEDTSTDTAYMELSSLRSEDTAVYYCATGNPYYTNGFNSWGQGTLVTVSS VL: DIQMTQSPSSLSASVGDRVTITCQASQSPNNLLAWYQQKPGKAPKLLIYGASDLPSGVPSRFSGSGSGTDFTLTISSLQPEDFATYYCQNNYYVGPVSYAFGGGTKVEIK not shown,"PD-1 Signaling EC50 (second incubation at 4 C), IgM",[2],0.065 nM
same,"PD-1 Signaling EC50 (method of Example 8), IgM",[1],0.13 nM
"Anti-PD-1 IgG #2 (antibody, V domains shown, IgG format; In the 'IgG/xlink' columns it was crosslinked 1:1 with goat anti-human IgG F(ab')2 fragment; also called Antibody #2 (IgG format); #2 IgG) VH: QVQLQESGPGVVKPSGTLSLTCAISGGSIGSGGSIRSTRWWSWVRQSPGKGLEWIGEIYHSGSTNYNPSLKSRVTISLDKSRNHFSLRLNSVTAADTAVYYCARQDYGDSGDWYFDLWGKGTMVTVSS VL: NFMLTQPHSVSESPGKTVTISCTRSSGSIASNSVQWYQQRPGSSPTTVIYEDNQRPSGVPDRFSGSIDSSSNSASLTVSGLKTEDEADYYCQSSDSSAVVFGSGTKLTVL",binding result,[3],no binding
same,EC50,[4],0.6 nM
same,binding result,[5],no binding
same,"PD-1 Signaling EC50 (second incubation at 4 C), IgG",[2],5.9 nM
same,"PD-1 Signaling EC50 (second incubation at 4 C), IgG/xlink (crosslinked IgG)",[2],2.1 nM
same,EC50,[6],2.9 nM
same,"PD-1 Signaling EC50 (method of Example 8), IgG",[1],22 nM
same,"PD-1 Signaling EC50 (method of Example 8), IgG/xlink (crosslinked IgG)",[1],3.8 nM
same,"PD-1 Signaling EC50, IgG/xlink (IgG crosslinked 1:1 with goat anti-human IgG F(ab')2 fragment)",[7],4.8 nM
"Anti-PD-1 IgM #2 (antibody, also called Antibody #2 (IgM format); pentameric IgM #2) VH: QVQLQESGPGVVKPSGTLSLTCAISGGSIGSGGSIRSTRWWSWVRQSPGKGLEWIGEIYHSGSTNYNPSLKSRVTISLDKSRNHFSLRLNSVTAADTAVYYCARQDYGDSGDWYFDLWGKGTMVTVSS VL: NFMLTQPHSVSESPGKTVTISCTRSSGSIASNSVQWYQQRPGSSPTTVIYEDNQRPSGVPDRFSGSIDSSSNSASLTVSGLKTEDEADYYCQSSDSSAVVFGSGTKLTVL not shown",binding result,[3],no binding
same,"PD-1 Signaling EC50 (PATHHUNTER Checkpoint Signaling Assay, reporter Jurkat cells), IgM",[8],0.72 nM
same,binding result,[5],no binding
same,EC50,[9],0.35 nM
same,"PD-1 Signaling EC50 (second incubation at 4 C), IgM",[2],0.1 nM
same,"PD-1 Signaling EC50 (method of Example 8), IgM",[1],0.29 nM
"Anti-PD-1 Hexameric IgM (IgHM) #2 (antibody, V domains shown) VH: QVQLQESGPGVVKPSGTLSLTCAISGGSIGSGGSIRSTRWWSWVRQSPGKGLEWIGEIYHSGSTNYNPSLKSRVTISLDKSRNHFSLRLNSVTAADTAVYYCARQDYGDSGDWYFDLWGKGTMVTVSS VL: NFMLTQPHSVSESPGKTVTISCTRSSGSIASNSVQWYQQRPGSSPTTVIYEDNQRPSGVPDRFSGSIDSSSNSASLTVSGLKTEDEADYYCQSSDSSAVVFGSGTKLTVL","PD-1 Signaling EC50 (method of Example 8), IgHM",[1],0.4 nM
"Anti-PD-1 IgG #4 (antibody, V domains shown) VH: QVQLVQSGSELKKPGASVKVSCKASGYTFTDYSMHWVRQAPGQGLEWMGWINIETGEPTYAQGFTGRFVFSLDTSVSTAYLQISSLKAEDTAVYFCARDYYGTYFYAMDYWGQGTLVTVSS VL: EIVLTQSPATLSLSPGERATLSCTASSSVSSSYLHWYQQKPGLAPRLLIYSTSNLASGIPDRFSGSGSGTDYTLTISRLEPEDFAVYYCHQYHRSPLTFGQGTKLEIK","PD-1 Signaling EC50 (second incubation at 4 C), IgG",[2],0.89 nM
same,"PD-1 Signaling EC50 (second incubation at 4 C), IgG/xlink (crosslinked IgG)",[2],1.7 nM
Anti-PD-1 IgM #4 (antibody) VH: QVQLVQSGSELKKPGASVKVSCKASGYTFTDYSMHWVRQAPGQGLEWMGWINIETGEPTYAQGFTGRFVFSLDTSVSTAYLQISSLKAEDTAVYFCARDYYGTYFYAMDYWGQGTLVTVSS VL: EIVLTQSPATLSLSPGERATLSCTASSSVSSSYLHWYQQKPGLAPRLLIYSTSNLASGIPDRFSGSGSGTDYTLTISRLEPEDFAVYYCHQYHRSPLTFGQGTKLEIK not shown,"PD-1 Signaling EC50 (second incubation at 4 C), IgM",[2],1.1 nM
"Anti-PD-1 IgG #1 (antibody, V domains shown, IgG format; In the 'IgG/xlink' columns it was crosslinked 1:1 with goat anti-human IgG F(ab')2 fragment; also called Antibody #1 (IgG format)) VH: EVQLQESGPGLVKPSQTLSLTCTVTGYSITSDYAWNWIRQPPGKKLEWMGYINYSGSTSYNPSLKSRVTISRDTSKNQFSLKLSSVTAADTAVYYCARWIGSSAWYFDVWGQGTLVTVS VL: DVLMTQTPLSLSVTPGQPASISCRSGQNIVHSNGNTYLEWYLQKPGQSPKLLIYKVSNRFFGVPDRISGSGSGTDFTLKISRVEAEDVGVYFCFQGSHVPFTFGQGTKLEIK",binding result,[3],no binding
same,EC50,[4],1.5 nM
same,"PD-1 Signaling EC50 (PATHHUNTER Checkpoint Signaling Assay, reporter Jurkat cells), IgG",[8],65 nM
same,binding result,[5],no binding
same,"PD-1 Signaling EC50 (second incubation at 4 C), IgG",[2],29 nM
same,"PD-1 Signaling EC50 (second incubation at 4 C), IgG/xlink (crosslinked IgG)",[2],4.4 nM
same,EC50,[6],59 nM
same,"PD-1 Signaling EC50 (method of Example 8), IgG",[1],85 nM
same,"PD-1 Signaling EC50 (method of Example 8), IgG/xlink (crosslinked IgG)",[1],1.8 nM
same,"PD-1 Signaling EC50, IgG/xlink (IgG crosslinked 1:1 with goat anti-human IgG F(ab')2 fragment)",[7],0.65 nM
"Anti-PD-1 Hexameric IgM (IgHM) #1 (antibody, V domains shown) VH: EVQLQESGPGLVKPSQTLSLTCTVTGYSITSDYAWNWIRQPPGKKLEWMGYINYSGSTSYNPSLKSRVTISRDTSKNQFSLKLSSVTAADTAVYYCARWIGSSAWYFDVWGQGTLVTVS VL: DVLMTQTPLSLSVTPGQPASISCRSGQNIVHSNGNTYLEWYLQKPGQSPKLLIYKVSNRFFGVPDRISGSGSGTDFTLKISRVEAEDVGVYFCFQGSHVPFTFGQGTKLEIK","PD-1 Signaling EC50 (method of Example 8), IgHM",[1],0.07 nM
